# According to doi:10.1101/2022.11.19.22282342:
# Target: TYROBP transmembrane domain (TMD), bacterial two-hybrid fusion (UniProt O43914)
# Experiment: two-hybrid
# UniProt O43914, sequence (O43914 22-113): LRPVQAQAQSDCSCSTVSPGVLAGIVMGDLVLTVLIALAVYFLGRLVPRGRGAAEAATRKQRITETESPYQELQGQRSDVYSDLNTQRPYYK
row,Molecule,"Miller Units (β-galactosidase, B2H) [Miller Units]"
1,"TREM2 transmembrane domain (TMD), bacterial two-hybrid fusion (from UniProt Q9NZC2 19-230) (domain or fragment)",903
2,"PLLVALLLGPKLLLVVGVSAIYIC (domain or fragment) [SIRPβ1 isoform 201 transmembrane domain (TMD), bacterial two-hybrid fusion]",111
3,"PLLIAFLLGPKVLLVVGVSVIYVY (domain or fragment) [SIRPβ1 isoform 202 transmembrane domain (TMD), bacterial two-hybrid fusion]",94
